Test results taken from doi:10.1101/2021.05.10.443400 (bioRxiv, 2021).

Assays:
[1] = target: T1, Human MutSα (MSH2-MSH6 complex), purified (human, UniProt P43246 1-934; P52701 1-1360); experiment: co-IP
[2] = target: T1, Human MutSα (MSH2-MSH6 complex), …; experiment: pull-down

T1 sequence (P43246 whole entry, chain 1 of 2): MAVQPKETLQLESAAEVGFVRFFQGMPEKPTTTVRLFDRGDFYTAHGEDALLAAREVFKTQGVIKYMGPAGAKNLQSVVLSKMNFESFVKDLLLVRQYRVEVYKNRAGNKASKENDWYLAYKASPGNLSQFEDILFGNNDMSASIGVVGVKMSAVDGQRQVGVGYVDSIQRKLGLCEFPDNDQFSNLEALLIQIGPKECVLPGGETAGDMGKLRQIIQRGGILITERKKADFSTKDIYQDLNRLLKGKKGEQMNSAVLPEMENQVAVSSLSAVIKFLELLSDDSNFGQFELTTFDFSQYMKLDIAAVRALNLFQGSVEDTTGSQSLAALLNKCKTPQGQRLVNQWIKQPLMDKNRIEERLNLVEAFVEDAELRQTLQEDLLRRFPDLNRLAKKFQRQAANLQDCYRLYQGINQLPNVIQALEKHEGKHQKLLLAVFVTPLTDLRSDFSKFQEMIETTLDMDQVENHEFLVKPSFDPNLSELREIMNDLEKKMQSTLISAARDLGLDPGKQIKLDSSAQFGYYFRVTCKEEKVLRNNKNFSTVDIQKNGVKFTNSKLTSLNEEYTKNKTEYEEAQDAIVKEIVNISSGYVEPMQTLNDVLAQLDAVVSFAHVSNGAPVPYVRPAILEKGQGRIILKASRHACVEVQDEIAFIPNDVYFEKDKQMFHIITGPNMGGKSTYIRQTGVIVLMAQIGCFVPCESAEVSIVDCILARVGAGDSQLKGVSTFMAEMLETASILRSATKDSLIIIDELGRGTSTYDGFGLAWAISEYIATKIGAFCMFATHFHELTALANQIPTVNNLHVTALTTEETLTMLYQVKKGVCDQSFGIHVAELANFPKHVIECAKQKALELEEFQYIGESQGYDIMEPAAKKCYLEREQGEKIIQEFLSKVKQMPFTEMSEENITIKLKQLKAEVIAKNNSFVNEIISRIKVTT
T1 sequence (P52701 whole entry, chain 2 of 2): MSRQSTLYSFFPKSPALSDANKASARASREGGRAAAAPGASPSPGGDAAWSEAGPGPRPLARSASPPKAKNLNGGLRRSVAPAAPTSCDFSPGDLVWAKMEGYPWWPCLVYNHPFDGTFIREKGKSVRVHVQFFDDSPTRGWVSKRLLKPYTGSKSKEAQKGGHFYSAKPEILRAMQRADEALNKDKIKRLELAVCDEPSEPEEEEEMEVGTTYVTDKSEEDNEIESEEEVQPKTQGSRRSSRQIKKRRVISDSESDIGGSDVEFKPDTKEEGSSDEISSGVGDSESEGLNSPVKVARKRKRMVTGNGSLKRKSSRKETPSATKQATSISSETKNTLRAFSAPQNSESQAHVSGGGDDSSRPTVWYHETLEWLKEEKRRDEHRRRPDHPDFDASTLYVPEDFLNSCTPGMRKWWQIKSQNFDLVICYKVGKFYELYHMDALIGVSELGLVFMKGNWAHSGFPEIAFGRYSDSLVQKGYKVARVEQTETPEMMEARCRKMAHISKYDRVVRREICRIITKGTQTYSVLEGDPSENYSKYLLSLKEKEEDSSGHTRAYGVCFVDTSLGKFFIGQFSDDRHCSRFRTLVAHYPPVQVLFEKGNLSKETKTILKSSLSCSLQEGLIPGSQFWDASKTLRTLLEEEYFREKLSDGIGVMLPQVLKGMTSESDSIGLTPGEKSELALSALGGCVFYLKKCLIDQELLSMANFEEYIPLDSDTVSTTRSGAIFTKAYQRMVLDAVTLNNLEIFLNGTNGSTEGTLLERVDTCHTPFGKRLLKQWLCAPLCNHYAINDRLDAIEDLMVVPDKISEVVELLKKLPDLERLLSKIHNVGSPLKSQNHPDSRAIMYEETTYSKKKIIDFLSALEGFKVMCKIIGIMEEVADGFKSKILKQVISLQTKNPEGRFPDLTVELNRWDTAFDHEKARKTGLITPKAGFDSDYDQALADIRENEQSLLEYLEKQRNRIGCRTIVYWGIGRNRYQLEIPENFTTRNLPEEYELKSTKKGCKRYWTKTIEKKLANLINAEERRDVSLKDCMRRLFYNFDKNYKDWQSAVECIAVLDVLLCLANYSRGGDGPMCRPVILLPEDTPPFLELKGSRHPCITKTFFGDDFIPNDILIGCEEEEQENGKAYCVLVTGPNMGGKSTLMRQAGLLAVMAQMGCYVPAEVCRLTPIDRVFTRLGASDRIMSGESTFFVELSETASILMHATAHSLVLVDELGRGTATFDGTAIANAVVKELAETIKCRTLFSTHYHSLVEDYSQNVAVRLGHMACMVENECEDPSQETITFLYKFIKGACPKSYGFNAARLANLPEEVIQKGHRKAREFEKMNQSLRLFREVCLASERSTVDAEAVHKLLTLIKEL

| binding result [1] | binding result [2] | Binder |
| --- | --- | --- |
| binds |  | Human Flag-MutLα (MLH1-PMS2 complex), purified (complex) chain 1: MSFVAGVIRRLDETVVNRIAAGEVIQRPANAIKEMIENCLDAKSTSIQVIVKEGGLKLIQIQDNGTGIRKEDLDIVCERFTTSKLQSFEDLASISTYGFRGEALASISHVAHVTITTKTADGKCAYRASYSDGKLKAPPKPCAGNQGTQITVEDLFYNIATRRKALKNPSEEYGKILEVVGRYSVHNAGISFSVKKQGETVADVRTLPNASTVDNIRSIFGNAVSRELIEIGCEDKTLAFKMNGYISNANYSVKKCIFLLFINHRLVESTSLRKAIETVYAAYLPKNTHPFLYLSLEISPQNVDVNVHPTKHEVHFLHEESILERVQQHIESKLLGSNSSRMYFTQTLLPGLAGPSGEMVKSTTSLTSSSTSGSSDKVYAHQMVRTDSREQKLDAFLQPLSKPLSSQPQAIVTEDKTDISSGRARQQDEEMLELPAPAEVAAKNQSLEGDTTKGTSEMSEKRGPTSSNPRKRHREDSDVEMVEDDSRKEMTAACTPRRRIINLTSVLSLQEEINEQGHEVLREMLHNHSFVGCVNPQWALAQHQTKLYLLNTTKLSEELFYQILIYDFANFGVLRLSEPAPLFDLAMLALDSPESGWTEEDGPKEGLAEYIVEFLKKKAEMLADYFSLEIDEEGNLIGLPLLIDNYVPPLEGLPIFILRLATEVNWDEEKECFESLSKECAMFYSIRKQYISEESTLSGQQSEVPGSIPNSWKWTVEHIVYKALRSHILPPKHFTEDGNILQLANLPDLYKVFERC chain 2: MERAESSSTEPAKAIKPIDRKSVHQICSGQVVLSLSTAVKELVENSLDAGATNIDLKLKDYGVDLIEVSDNGCGVEEENFEGLTLKHHTSKIQEFADLTQVETFGFRGEALSSLCALSDVTISTCHASAKVGTRLMFDHNGKIIQKTPYPRPRGTTVSVQQLFSTLPVRHKEFQRNIKKEYAKMVQVLHAYCIISAGIRVSCTNQLGQGKRQPVVCTGGSPSIKENIGSVFGQKQLQSLIPFVQLPPSDSVCEEYGLSCSDALHNLFYISGFISQCTHGVGRSSTDRQFFFINRRPCDPAKVCRLVNEVYHMYNRHQYPFVVLNISVDSECVDINVTPDKRQILLQEEKLLLAVLKTSLIGMFDSDVNKLNVSQQPLLDVEGNLIKMHAADLEKPMVEKQDQSPSLRTGEEKKDVSISRLREAFSLRHTTENKPHSPKTPEPRRSPLGQKRGMLSSSTSGAISDKGVLRPQKEAVSSSHGPSDPTDRAEVEKDSGHGSTSVDSEGFSIPDTGSHCSSEYAASSPGDRGSQEHVDSQEKAPKTDDSFSDVDCHSNQEDTGCKFRVLPQPTNLATPNTKRFKKEEILSSSDICQKLVNTQDMSASQVDVAVKINKKVVPLDFSMSSLAKRIKQLHHEAQQSEGEQNYRKFRAKICPGENQAAEDELRKEISKTMFAEMEIIGQFNLGFIITKLNEDIFIVDQHATDEKYNFEMLQQHTVLQGQRLIAPQTLNLTAVNEAVLIENLEIFRKNGFDFVIDENAPVTERAKLISLPTSKNWTFGPQDVDELIFMLSDSPGVMCRPSRVKQMFASRACRKSVMIGTALNTSEMKKLITHMGEMDHPWNCPHGRPTMRHIANLGVISQN |
|  | binds | Human GST-Flag-Orc6, full length (natural protein, UniProt Q9Y5N6 1-252, looked up) MGSELIGRLAPRLGLAEPDMLRKAEEYLRLSRVKCVGLSARTTETSSAVMCLDLAASWMKCPLDRAYLIKLSGLNKETYQSCLKSFECLLGLNSNIGIRDLAVQFSCIEAVNMASKILKSYESSLPQTQQVDLDLSRPLFTSAALLSACKILKLKVDKNKMVATSGVKKAIFDRLCKQLEKIGQQVDREPGDVATPPRKRKKIVVEAPAKEMEKVEEMPHKPQKDEDLTQDYEEWKRKILENAASAQKATAE |
|  | binds | GST-Flag-Orc6 middle TFIIB (TFIIB-B) domain (94-187) (domain or fragment, human, UniProt Q9Y5N6 94-187, looked up) SNIGIRDLAVQFSCIEAVNMASKILKSYESSLPQTQQVDLDLSRPLFTSAALLSACKILKLKVDKNKMVATSGVKKAIFDRLCKQLEKIGQQVD |
